Reference: paper PMC314469, “Protein Interaction Networks by Proteome Peptide Scanning” (PLoS Biology, 2004)

T1: amphyphisin SH3 (AMPH_HUMAN), P49418
T1 chain: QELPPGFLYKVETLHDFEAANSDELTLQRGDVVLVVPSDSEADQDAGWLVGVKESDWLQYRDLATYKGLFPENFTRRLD


Columns and labels:
[1] = target: T1, amphyphisin SH3 (AMPH_HUMAN), P49418; assay: SPOT array
[2] = target: endophilin SH3 (SH3G2_HUMAN), Q99962; assay: SPOT array

Binder	normalised SPOT signal, Boehringer light units (BLU); mean over the file's lines of this peptide [1]	normalised SPOT signal, Boehringer light units (BLU); mean over the file's lines of this peptide [2]
SLLDFIRPLKISSD [Q9UPM8 1026-1039]	219	0
SISFPTRPPLQAQI [Q8TDT3 61-75]	61.2	162
SKTPPQRPPPQGGP	127	1450
SIVEFFRPPKEVHL [Q96RL7 600-613]	164	98.5
SLALPRRPQNRDSI [Q9HCG4 261-274]	96.2	866
SITQLRRPSQLLYP [Q96AN7 126-139]	9.2	36.3
SLHGPRRPQPGASG [O95428 745-758]	33.5	256
SLSFIARPGKVSQL [P21128 321-334]	152	146
SKTPPQRPPPQGSL	193	2380
SLASPRRPLLSDFA [Q96RJ6 21-34]	78.6	1690
SINLLSRPERGWEG [Q14801 17-30]	0	97.2
SARGPLRPPVRSPA [P30084 9-23]	3810	1950
SLKRPKRPLFNFAL [Q96RW7 70-83]	169	2170
SKASLSRPGRRPLG [Q9C0H4 580-593]	226	53.5
SLEVIRRPETKVLI [Q9BYK8 558-571]	22.1	65.4
SLKIFRRPRKLFMQ [Q99776 220-233]	88.1	74.5
SIWDPRRPLNTTEG [P09848 409-422]	10.9	41.8
